{
  "source": "the DeepSol protein solubility set",
  "data": [
    {"assay": "soluble on expression in E. coli; label from the status in PepcDB or PDB records", "values": [
      {"sequence": "MGSDKIHHHHHHMRHIAHYCVAHPAGSMVVPGTRKKRELLPSAAPWRLSGVFVSLDEIRKDWTTLGAAAPLWAVCVDPAKRHGGWDDDEFLASGRAEIDAAMARLAELGIAHGRERALDFGCGAGRLSNALAAYFDRVVGVDISAPMLAEARRLDRSGGRIDFLLNDAPDLKIFPDASFDLVYTDLVLQHLPPPLARGYLAEFARVLRPGGALVAGMPATERRTVKGLVFRYAPHRVIRFIQRVLLGYPAPMRMHTMPPEQMRELLASHGVRVVSAEEYAGDDHGTHWVHMRYYARKDPGAAL", "soluble on expression in E. coli": "not soluble"},
      {"sequence": "GPGSMHSEQSICEFIHMQRELRRCYATMENYEVVIAQLRDDCALSRAQLCRFQQEHAQRGKDVEAQVRAELTEQTNARLSALRQSEASDALCLKTSAGPDRNTTDAAEEYRRDTCQATLDELRRALQEEQSAHAECLARLTEALAAKARWKSRAVELLKWRKQVCGQMYMSSTPSSSSFVAGARAIGTCGALPGVSTISNCASDSQAEPNAGNSASDVSSPSQRLYRPPSPYKPPPCVSSPSEAGKLRSSMTSEASAALPASPYEGGTGACAADKENEKDSSSTPGADISCQSDSTAVSFLSPSTTPAGRVAQALGSGVVVVWPPLAERQEMSTRKSAESSRTQSSTTAAALESGNPALLDDSGKQGLQPSPPTSSVSPGVLPSSVGRYTTSAVGSRTQAGCRLPLVGCEKAVVAAEPLRVMPDPFAFPRPPPSGGVTCTNHSLLSTSDELPTSCDVSAAMASSAAERQCNELLRALLDKEQQLALIAEERTKYKRLYEATQS", "soluble on expression in E. coli": "not soluble"},
      {"sequence": "MERRKDTEVALAQRDTILQTILDASPDSIGIFNENMVYQACNKPFVNALGISEVSDLIGKRLQDVIPVEMYTRLETSDLHALRQAEPVRYIDKVVSSDGHITWFDVVKSPFKDKASGTNGVLIMARDIS", "soluble on expression in E. coli": "not soluble"},
      {"sequence": "EKAQLIGPEDADITFVTWGSQKGPILDVIEDLKQDDITANLLYLKMFSPFPTEFVKSILSKAHLVIDVESNFTAQAAQMIKLYTGIEIENKILKYNGRHMTEDEILNSAKNILNK", "soluble on expression in E. coli": "not soluble"},
      {"sequence": "MGGIARLYGDSALAHFSQAHVCVVGVGGVGSWAVEALARTGIGRLTLIDLDNVAESNVNRQLHALTGDFGKAKVTALRERITQINPQCEVFEIEDFVTEDNLPEYFGKGFDFVIDAIDQVRVKAAMAAYFVERKQPFVLSGGAGGQKNPALIQTADLSRVTHDPLLANLRYTLRKRYGFSRDTKANMRVPCVYSTENIVPPQSREACSADAAPQGLSCAGYGASMLVTASFGLYCAQAAVEHIADKKLEHHHHHH", "soluble on expression in E. coli": "not soluble"},
      {"sequence": "MSSSREENVYLAKLAEQAERYEEMVEFMEKVAKTVDTDELTVEERNLLSVAYKNVIGARRASWRIISSIEQKEESRGNDDHVSIIKDYRGKIETELSKICDGILNLLDSHLVPTASLAESKVFYLKMKGDYHRYLAEFKTGAERKEAAESTLVAYKSAQDIALADLAPTHPIRLGLALNFSVFYYEILNSPDRACSLAKQAFDEAISELDTLGEESYKDSTLIMQLLRDNLTLWNSDINDEAGGDEIKEASKHEPEEGKPAETGQ", "soluble on expression in E. coli": "soluble"},
      {"sequence": "MSLKAPYTIGWANIYSVPTWMKQTEGTITAEVEELKKAGLVRDLMITDAQGNAQTQIQHIQSMIDANVDAIVVIAGSSNALDRVISDACDKGIAVVNFDSLVNTDKVTAKINTDSNEWGATAAKWMVSQLGGKGKIIIMNGPAGISVSDDRRKGAQPVLDANPGLQVITETNTEYNVAPAQEAMTSLLFANPEIDGVLSLGGALSAGSVLAFERQGRDQVPTTGENARQFLELWKEKGLKGWATMQPNWLGALSVYTAVQALEGKDVPAFVKVPLPVIDDSTIGSYLARADKFPADGYIYSDYDKALFDKLLATKEGHHHHHH", "soluble on expression in E. coli": "soluble"},
      {"sequence": "MERIAMNPLMQQAIQFANDHETAWDRSVRGNFGVHLDDPPPWNRLLGPVHDRGPVSGVVVVDGQTLASWGEPERADLTFSVAKLYLSILAGVAHDRGLLPDVDEPVGRRVPGIGFDAGRNARITWRHLLQQTSEWEGERFGVPDQADRYRAVAFGIPPDGRKGDARPLQEPGTYWEYNDVRINQLSYALLHLFRRPLPEVFREAVTRPLGASEDWQWVGYDNAWVDIDGVRMPSVPGGTHWGGGMSISARDQALIGRMLLDEGRAADGRQVLSPAWIQAMRTPCDIAPYYGYLIWLNHERKVFPSVPASSFFGIGAGSSFTWVEPERRMVVIVRWLDAAYADALFGRILAAVDAHRAGLEHHHHHH", "soluble on expression in E. coli": "not soluble"},
      {"sequence": "MGSDKIHHHHHHMPDNANIAASHTQAHGSSYDDKPTQPQCDSIKLNEIGPNLLEPRAIEPSATKPNAIKHESVITKQKQKVIFIGLPRTGTTSVSVALLEQGLKVAHMAFTKEAFMQADAISDAPCFSDFKQLDELFPKAKFVYLDRELDSWVPSMQMLLSRMLPHLDAKIGRFHPIMKRSFRHTFGVGVVENPQDEQHLIDCYQHHKTEVFNYFAGRQDLLSIDVSQQGALGQLLAFMELTSAENHNLSFPKLNVGRNVASWDEYKHPNKISANAAGPEKRKYFDYKV", "soluble on expression in E. coli": "not soluble"},
      {"sequence": "SGPLDEYAYSWANHLLANPVNCATLEITLGPAEFLLRSDAQLAIAGGDLNATLDGRPIANWSRFYAKQGQTLRFGLPRNGLRAYLAVQGGFTVSPQLGSVSTHVRQGLGGLTSQGLALQTGDDLVFSAQQIAQKPVQMTFRFRPDYNLPLRLRVIESYQYQAFSPSAMESFYRSEFIVTPNSDRMGYRLQGETISPPDQAILSEGIALGAIQVPPNGQPIILLNDRQTIGGYPKLGCVARIDLPRLAQAKPGHSVRFVAGDLAGLQAVWCQWARFFGY", "soluble on expression in E. coli": "not soluble"},
      {"sequence": "MSLNIFNSVKKAEIHVHLEATITPDLCKKFAKRNNHEIPEEMFGSEYAYQWDDFYDFIKKYDIVTSVIHTPEDYFELTYEYLKDCAANNVLYVEAMISSTHAKEKGMTYNSFIEGVYEASKKAEEDFGIVSRYIMNGIRHLGPESVQGTAEEVLNNPHPCLVGFGLAGDELHFPPNLFVETFDMLKKENFPITVHAGEWDGPVNIRNAINLLHPTRLGHGVRSIEDPDLVKEIIDKDIILETCPTSNVATKIYKDYIDHPVKTLFDQGVKVTVNSDDPPFFKCTINGEYKVMEDLGEGHHHHHH", "soluble on expression in E. coli": "soluble"},
      {"sequence": "SLQKFKWSNIYCKEADCVRILLVADPQILGKTFDTHFYAGLANYDSDRYLAWYYEQAVEHVQPDVIIFLGDLMDEGTDSTEMHFEEYYTRFGAIFPTHPTARSIYIPGDNDIGGEGRQPLNPIAKRRFRQYFSERPAWVINDNLTIYNINRITLEMTLNDPRMVDSTGSDVSDRYLRIFVSHMPVLDVPSSFTYTAIHNLKPNVIFSAHLHVSQFARIHRSRLKTVQYKPLSQDKRTAYKVHSFDLSYHQDTQELLEIIVPTCSYRMSVPDIGYGYAAIDGTTLKYTVLWTTRRFYQLISYV", "soluble on expression in E. coli": "not soluble"},
      {"sequence": "MGPQSDSRTLISTYSQQSFQQFSFEYCYHSNTPSLPFSAIFSLYWLLHPFSASTGFSKGPQSDYRTLISTYYQQSFQQFSFEYCYHSNTPSLVSLFFSHLQPFLAIFSHFQPFSASAGFSKGPQSDSRTLISTYSQQSFQQFSFEYCCLSNTRSLVSLF", "soluble on expression in E. coli": "not soluble"},
      {"sequence": "PVNDEVEAVKNMHLIGQSQVAFREWNQKWVDLSLNSFADIENNLFEAEGYNHSFRFLKASHQIDQIESQITLIEEDIAAIRNALADLEKQESKNSGRVLHALDLFEELQHRVAENSEQYGQALDEIEKQLENIQSEFSQFVTLNSSGDPVEAAVILDNTENHILALSHIVDRVPALVTTLSTELPDQLQDLEAGYRKLIDANYHFVETDIEARFHLLYEAFKKNQENIRQLELDNAEYENGQAQEEINALYDIFTREIAAQKVVENLLATLPTYLQHMKENNTLLGEDIARLNKTYLLPETAASHVRRIQTELESFEAAIVEVTSNQEEPTQAYSVLEENLEDLQTQLKDIEDEQISVSERLTQIEKDDINARQKANVYVNRLHTIKRYMEKRNLPGIPQTFLKLFFTASNNTEDLMVELEQKMINIESVTRVLEIATNDMEALETETYNIVQYATLTEQLLQYSNRYRSFDERIQEAFNEALDIFEKEFDYHASFDKISQALEVAEPGVTNRFVTSYEKTRETI", "soluble on expression in E. coli": "not soluble"},
      {"sequence": "MDRLESVLKEERVFYPSEEFRKQAHIKSEEEYQRLYEESVRDPEGFWGRVASELHWFEPWRKVLEGDLPHPKWFVGGKTNLSYNALDRHVKTWRRNKAAIVWEGEPGEERVLTYHDLWREVQRFANVLKRLGVKKGDRVTIYLPMIPEAAIAMLACTRIGAVHSVVFGGFSAGALADRIKDAEAKVLITADGGFRRGGIVPLKQNADEALKDATSVEHVVVVRRTGEEVPWTPGRDHWWHELMEAAPDRCDPEPMEAEEPLFILYTSGSTGKPKGVLHTTGGYMTYVYYTTKLVFDLKDEDVYWCTADVGWITGHSYVVYGPLLNGATTVMYEGAPNWPEPDRFWRIVDKYGVTVFYTAPTAIRSFMKWGEGWPGKHRLDSLRLLGTVGEPINPEAWLWYYHVIGKGRCPIVDTWWQTETGGIMITTLPGAHAMKPGHAGKPFFGVVPEILDGEHRPVENPDEGGHLCITRPWPSMLRTVWGDPERFLQQYFSQHPGVYFSGDGAKRDKDGYYMILGRVDDVLNVAGHRLGTMEIESALVAHPAVAEAAVVGRPDPVKGEAIVAFVTLKEGHTPSDALKEELRAHVAKVIGPIARPDEIRFTDALPKTRSGKIMRRLLRQIAAGEKEIKGDTSTLEDRSVVERLKEGA", "soluble on expression in E. coli": "soluble"},
      {"sequence": "MGSDKIHHHHHHMEYATLGNSGVEVSEVGFGAWVVGTDWWGDRTRDDAIDMVQHALDEDVTFFDTGDVYGHGDSEEIIGEALAEHRDEVTVSTKIGYDFYNNPQAGHGELPKKVTPEWVHTAVDRSLDRLGMDHVELLMLHNANVDEVDEDVLEALDELREEGKVDAIGWALGPSIGWLAEGDAAVANEFDALQTVFNLFEQTPGQHFIDTIREQNADTSVLARVPHSSGLLNEQVTPETELGKGDHRSHRPSEWYETGWEKVEEIRFLERDGARTMGQAAIQWLLYNDEVASVTPTFRTNADIDEWAGAPDTPPLSDEEYDRVQELYRDNFGIDRDDGMDALRSSVGGADLEETGMKSAGD", "soluble on expression in E. coli": "not soluble"},
      {"sequence": "MSLPNIDSLFVTRLYRAALSEHGPAIDAKEMEASCYSIAEDDEAGQGWCDENGYPGYTSYASLSDLPWRFPIFADLVKVLDAHVAAFAEDLEFDLDGKELKLEDIWINILPEGGMHASHIHPHSVISGTTYVAMPEGTSALKLEDPRSARMMASPVRRKDARQELRTFIYAKPVVGDVLLWESWLRHEVPMNMSEEDRISVSFNYSWGEGHHHHHH", "soluble on expression in E. coli": "soluble"},
      {"sequence": "GSLILDGDLLKDKLKLPVIDNLFGKELLDKFQDDIKDKYGVDTKDLKILKTSEDKRFYYVSVDAGDGEKCKFKIRKDVDVPKMVGRKCRKDDDDDDGY", "soluble on expression in E. coli": "soluble"},
      {"sequence": "MGSDKIHHHHHHMGGIYRLSLKSTEATAERLSCDTRCNYEDRDLAYSPDGRWLAIARRFSNISEDIFIRDLASAHEKRLTQGLEDIRGLSWTPDSQALVFATEDSGSSNGFTLDINTAQIRSLDVEGMSYPSSVSAEGELVYHQYHRQFQMAYFSLGDKVPGSLFPLLYSGVSHRNPDYSPEAKRIVFVSSETGYNEIWTSDINGQKLEQLTQLKSRVAYPRWSPDGSRIAFIAPDDRNEGNRIFILDLTNKNITALASSYHNHGRPSWNWQGTAVLASTADGITEFYLDNRAPRVISSLSMAVGFAKSATELVFSRDGENGLWQINLTQPEHVEQLISTDAFRAGNNWVLTASGVYFKSSNGHEQLLNYWEASSQQVTSLLRVPRSSLSGFGSMTYIPEANRLVMTLDGFPQRDIILLKHKLLK", "soluble on expression in E. coli": "not soluble"}
    ]}
  ]
}
